Data reported in the supplement of paper PMC10567573.

B1: ZNF193 (parent)
chain: QCIECGKSFNRHCNLIRHQKIHTV

Variants of: B1
Experiment: protein stability index of a GFP-peptide fusion (GPS, HEK-293T) (PSI 1-6); higher = more stable
Details: c terminus: a fixed tail appended
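Further: lentivirally expressed fusions sorted by FACS into six bins by GFP to DsRed ratio, PSI derived from sequencing read proportions per bin multiplied by bin number.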

Variant | protein stability index
QCIECGKSFNRHCNLIRHEKIHTV [Q19E] | 3.73
QCIECGKSFNRHCNLIRHSKIHTV [Q19S] | 3.46
QCIECGKSFNRHCNLIRHFKIHTV [Q19F] | 2.73
QCIECGKSFNRHCNLIRHDKIHTV [Q19D] | 2.03
QCIECGKSFNRHCNLIRHRKIHTV [Q19R] | 2.98
QCIECGKSFNRHCNLIRHMKIHTV [Q19M] | 3.48
QCIECGKSFNRHCNLIRHNKIHTV [Q19N] | 2.81
QCIECGKSFNRHCNLIRHCKIHTV [Q19C] | 3.78
QCIECGKSFNRRCNLIRHQKIHTV [H12R] | 3.22
QCIECGKSFNRFCNLIRHQKIHTV [H12F] | 3.06
QCIECGKSFNRECNLIRHQKIHTV [H12E] | 3.81
QCIECGKSFNRVCNLIRHQKIHTV [H12V] | 3.76
QCIECGKSFNRWCNLIRHQKIHTV [H12W] | 3.19
QCIECGKSFNRACNLIRHQKIHTV [H12A] | 3.48
QCIECGKSFNRLCNLIRHQKIHTV [H12L] | 4.23
QCIECGKSFNRMCNLIRHQKIHTV [H12M] | 3.65
QCIECGKSFNRICNLIRHQKIHTV [H12I] | 3.43
QCIECGKSFNRCCNLIRHQKIHTV [H12C] | 2.92
QCIECGKSFNRTCNLIRHQKIHTV [H12T] | 3.71
QCIECGKSFNRHCNLGRHQKIHTV [I16G] | 3.02
QCIECGKSFNRHCNLHRHQKIHTV [I16H] | 3.18
QCIECGKSFNRHCNLSRHQKIHTV [I16S] | 3.41
QCIECGKSFNRHCNLTRHQKIHTV [I16T] | 3.3
QCIECGKSFNRHCNLRRHQKIHTV [I16R] | 3.51

Variant | protein stability index
QCIECGKSFNRHCNLWRHQKIHTV [I16W] | 2.46
QCIECGKSFNRHCNLIRHQKIHTQ [V24Q] | 3.87
QCIECGKSFNRHCNLIRHQKIHTG [V24G] | 3.56
QCIECGKSFNRHCNLIRHQKIHTE [V24E] | 4.36
QCIECGKSFNRHCNLIRHQKIHTL [V24L] | 3.43
QCIECGKSFNRHCNLIRHQKIHTF [V24F] | 3.41
QCIECGKSFNRHCNLIRHQKIHTC [V24C] | 3.99
QCIECGKSFNRHCNLIRHQKIHTY [V24Y] | 3.4
QCIECGKSFNRHCNLIRHQKIHTM [V24M] | 4.19
QCIECGKSFNHHCNLIRHQKIHTV [R11H] | 3.5
QCIECGKSFNLHCNLIRHQKIHTV [R11L] | 3.5
QCIECGKSFNPHCNLIRHQKIHTV [R11P] | 3.21
QCIECGKSFNVHCNLIRHQKIHTV [R11V] | 3.21
QCIECGKSFNTHCNLIRHQKIHTV [R11T] | 4.4
QCIECGKSFNIHCNLIRHQKIHTV [R11I] | 2.89
QCIECGKSFNGHCNLIRHQKIHTV [R11G] | 3.25
QCIECGKSFQRHCNLIRHQKIHTV [N10Q] | 3.73
QCIECGKSFLRHCNLIRHQKIHTV [N10L] | 2.48
QCIECGKSFCRHCNLIRHQKIHTV [N10C] | 3
QCIECGKSFHRHCNLIRHQKIHTV [N10H] | 3.91
QCIECGKSFDRHCNLIRHQKIHTV [N10D] | 3.88
QCIECGKSFERHCNLIRHQKIHTV [N10E] | 3.92
QCIECGKSFRRHCNLIRHQKIHTV [N10R] | 3.97
QCIECAKSFNRHCNLIRHQKIHTV [G6A] | 2.38

Variant | protein stability index
QCIECFKSFNRHCNLIRHQKIHTV [G6F] | 1.59
QCIECIKSFNRHCNLIRHQKIHTV [G6I] | 1.42
QCIECTKSFNRHCNLIRHQKIHTV [G6T] | 2.23
QCIECLKSFNRHCNLIRHQKIHTV [G6L] | 1.97
QCIECKKSFNRHCNLIRHQKIHTV [G6K] | 3.54
QCIECVKSFNRHCNLIRHQKIHTV [G6V] | 1.92
QCIECHKSFNRHCNLIRHQKIHTV [G6H] | 2.15
QCIECSKSFNRHCNLIRHQKIHTV [G6S] | 2.54
QCSECGKSFNRHCNLIRHQKIHTV [I3S] | 4.17
QCNECGKSFNRHCNLIRHQKIHTV [I3N] | 3.65
QCRECGKSFNRHCNLIRHQKIHTV [I3R] | 3.59
QCCECGKSFNRHCNLIRHQKIHTV [I3C] | 3.63
QCAECGKSFNRHCNLIRHQKIHTV [I3A] | 4.7
QCYECGKSFNRHCNLIRHQKIHTV [I3Y] | 3.38
QCGECGKSFNRHCNLIRHQKIHTV [I3G] | 3.72
QCFECGKSFNRHCNLIRHQKIHTV [I3F] | 3.32
QCIECGKSFNRHCNDIRHQKIHTV [L15D] | 3.18
QCIECGKSFNRHCNAIRHQKIHTV [L15A] | 2.82
QCIECGKSFNRHCNWIRHQKIHTV [L15W] | 4.43
QCIECGKSFNRHCNHIRHQKIHTV [L15H] | 4.19
QCIECGKSFNRHCNGIRHQKIHTV [L15G] | 3.04
QCIECGKSFNRHCNMIRHQKIHTV [L15M] | 3.35
QCIECGKSFNRHCNVIRHQKIHTV [L15V] | 2.34
QCIECGKSFNRHCNCIRHQKIHTV [L15C] | 3.6

Variant | protein stability index
QCIECGKSFNRHCNLIRHQQIHTV [K20Q] | 3.5
QCIECGKSFNRHCNLIRHQHIHTV [K20H] | 2.9
QCIECGKSFNRHCNLIRHQWIHTV [K20W] | 2.22
QCIECGKSFNRHCNLIRHQEIHTV [K20E] | 3.29
QCIECGKSFNRHCNLIRHQCIHTV [K20C] | 3.47
QCIECGKSFNRHCNLIRHQIIHTV [K20I] | 2.2
QCIECGKSFNRHCNLIRHQPIHTV [K20P] | 2.7
QCIECGKSFNRHCNLIRHQSIHTV [K20S] | 3.3
QCIECGKSFNRHCNLIRHQLIHTV [K20L] | 2.93
QCIECGKSFNRHCNLIRHQGIHTV [K20G] | 2.38
QCIECGKSYNRHCNLIRHQKIHTV [F9Y] | 3.01
QCIECGKSWNRHCNLIRHQKIHTV [F9W] | 2.77
QCIECGKSNNRHCNLIRHQKIHTV [F9N] | 2.56
QCIECGKSRNRHCNLIRHQKIHTV [F9R] | 2.77
QCIECGKSKNRHCNLIRHQKIHTV [F9K] | 3.06
QCIECGKSQNRHCNLIRHQKIHTV [F9Q] | 2.88
QCIECGKSSNRHCNLIRHQKIHTV [F9S] | 2.83
QCIECGKSFNRHCNLIRHQKINTV [H22N] | 2.78
QCIECGKSFNRHCNLIRHQKIMTV [H22M] | 2.34
QCIECGKSFNRHCNLIRHQKIKTV [H22K] | 2.41
QCIECGKSFNRHCNLIRHQKIETV [H22E] | 2.63
QCIECGKSFNRHCNLIRHQKIDTV [H22D] | 2.08
